Measured values: PMC2794717

Molecular target: yeast SCF^Cdc4 ubiquitin ligase (yeast) (UniProt P52286)
Sequence of UniProt P52286 (P52286 whole entry, chain 1 of 4): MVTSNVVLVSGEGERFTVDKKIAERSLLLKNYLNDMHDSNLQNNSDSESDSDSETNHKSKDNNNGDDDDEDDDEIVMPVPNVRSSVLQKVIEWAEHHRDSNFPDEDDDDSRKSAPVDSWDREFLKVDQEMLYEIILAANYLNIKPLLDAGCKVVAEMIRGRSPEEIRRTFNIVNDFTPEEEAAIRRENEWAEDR
Sequence of UniProt P52286 (Q12018 whole entry, chain 2 of 4, further chain): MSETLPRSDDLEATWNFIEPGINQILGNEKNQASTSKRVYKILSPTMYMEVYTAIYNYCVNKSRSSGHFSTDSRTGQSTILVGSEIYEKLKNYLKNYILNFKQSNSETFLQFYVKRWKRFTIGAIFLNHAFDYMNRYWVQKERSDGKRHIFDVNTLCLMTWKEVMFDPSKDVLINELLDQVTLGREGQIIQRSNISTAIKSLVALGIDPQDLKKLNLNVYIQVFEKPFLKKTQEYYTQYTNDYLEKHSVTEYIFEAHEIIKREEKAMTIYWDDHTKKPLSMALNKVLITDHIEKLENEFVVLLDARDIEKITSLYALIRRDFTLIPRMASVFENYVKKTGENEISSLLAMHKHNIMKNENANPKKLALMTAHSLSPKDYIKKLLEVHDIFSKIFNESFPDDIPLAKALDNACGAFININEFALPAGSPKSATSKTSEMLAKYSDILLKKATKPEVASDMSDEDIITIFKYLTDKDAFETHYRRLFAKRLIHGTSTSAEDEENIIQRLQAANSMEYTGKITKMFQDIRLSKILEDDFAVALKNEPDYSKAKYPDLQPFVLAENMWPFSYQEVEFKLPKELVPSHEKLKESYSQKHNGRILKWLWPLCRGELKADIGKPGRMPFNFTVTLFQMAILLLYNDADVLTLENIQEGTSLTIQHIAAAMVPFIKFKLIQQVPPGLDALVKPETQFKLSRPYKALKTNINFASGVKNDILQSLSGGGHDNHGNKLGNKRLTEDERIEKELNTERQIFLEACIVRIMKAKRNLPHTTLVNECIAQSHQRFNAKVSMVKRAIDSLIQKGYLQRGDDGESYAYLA
Sequence of UniProt P52286 (P07834 whole entry, chain 3 of 4, further chain): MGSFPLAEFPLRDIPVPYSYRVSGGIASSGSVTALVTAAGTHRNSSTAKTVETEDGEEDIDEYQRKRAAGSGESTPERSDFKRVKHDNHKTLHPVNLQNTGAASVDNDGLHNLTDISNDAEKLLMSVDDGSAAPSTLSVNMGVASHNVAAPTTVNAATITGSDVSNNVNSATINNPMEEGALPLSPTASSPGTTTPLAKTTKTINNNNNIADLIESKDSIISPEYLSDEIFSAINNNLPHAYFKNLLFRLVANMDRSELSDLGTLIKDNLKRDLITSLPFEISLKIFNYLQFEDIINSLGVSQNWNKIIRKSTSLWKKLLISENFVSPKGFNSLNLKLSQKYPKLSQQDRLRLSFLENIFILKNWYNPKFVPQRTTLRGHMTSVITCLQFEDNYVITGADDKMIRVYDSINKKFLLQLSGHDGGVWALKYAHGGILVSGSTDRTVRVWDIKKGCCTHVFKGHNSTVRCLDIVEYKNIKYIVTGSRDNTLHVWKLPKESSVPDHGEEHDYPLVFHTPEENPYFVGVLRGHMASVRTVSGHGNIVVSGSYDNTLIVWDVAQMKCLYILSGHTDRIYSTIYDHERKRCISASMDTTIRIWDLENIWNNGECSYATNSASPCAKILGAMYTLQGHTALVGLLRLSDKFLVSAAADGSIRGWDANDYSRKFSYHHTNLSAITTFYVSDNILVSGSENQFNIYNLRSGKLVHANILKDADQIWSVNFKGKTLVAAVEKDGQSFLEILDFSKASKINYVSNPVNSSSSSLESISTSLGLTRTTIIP
Sequence of UniProt P52286 (Q08273 whole entry, chain 4 of 4, further chain): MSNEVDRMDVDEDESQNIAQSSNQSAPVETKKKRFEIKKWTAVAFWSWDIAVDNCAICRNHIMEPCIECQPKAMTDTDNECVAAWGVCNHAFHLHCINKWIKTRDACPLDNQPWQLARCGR

fold increase in Km in Sic1 ubiquitylation reactions, against Cdc34-Δ230: 3 fold
B1: yeast Cdc34-Δ220 (domain or fragment)
chain: MSSRKSTASSLLLRQYRELTDPKKAIPSFHIELEDDSNIFTWNIGVMVLNEDSIYHGGFFKAQMRFPEDFPFSPPQFRFTPAIYHPNVYRDGRLCISILHQSGDPMTDEPDAETWSPVQTVESVLISIVSLLEDPNINSPANVDAAVDYRKNPEQYKQRVKMEVERSKQDIPKGFIMPTSESAYISQSKLDEPESNKDMADNFWYDSDLDDDENGSVILQ
